Measurements as given in US7452701B2, “Methods for the preparation of β-amino acids” (Wisconsin Alumni Research Foundation, priority 1998, dated 2008).

T1: Escherichia coli 2,3-aminomutase (P39280 protein) (Escherichia coli, UniProt P39280)
T1 sequence (P39280 whole entry, looked up): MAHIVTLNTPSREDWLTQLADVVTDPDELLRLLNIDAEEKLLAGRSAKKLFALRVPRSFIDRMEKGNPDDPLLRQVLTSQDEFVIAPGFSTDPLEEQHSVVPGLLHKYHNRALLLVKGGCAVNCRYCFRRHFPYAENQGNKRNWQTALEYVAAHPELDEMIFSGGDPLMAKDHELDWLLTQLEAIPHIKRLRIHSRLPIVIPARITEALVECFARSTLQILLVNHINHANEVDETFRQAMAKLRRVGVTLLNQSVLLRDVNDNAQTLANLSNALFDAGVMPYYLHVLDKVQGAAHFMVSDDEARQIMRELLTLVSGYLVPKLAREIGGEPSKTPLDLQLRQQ


Experiments:
[1] = biological target: T2, Clostridial lysine 2,3-aminomutase (Clostridium subterminale, UniProt Q9XBQ8); assay: Lysine 2,3-aminomutase activity, conversion of C-14 L-α-lysine to L-β-lysine (paper electrophoresis); assay type: biochemical, Clostridium subterminale SB4; conditions: purified recombinant produced enzyme
T2 construct: made in house; host or cells: E. coli BL21(DE3) with pET-23a(+) (lysine 2,3-aminomutase gene) and pAlter-Ex2 (dnaY gene)
Method: Aerobically grown E. coli cells (1 ml) containing the pET 23a(+) plasmid vector with the Clostridial lysine 2,3-aminomutase gene and the p-Alter-EX2 plasmid vector with the E. coli dnaY gene were used to seed a glass fermentor (Virtis Laboratory Fermentor #233395, Virtis Corporation, Gardiner, N.Y.) containing 15 liters of 2×YT media (240 gm Difco Bactotryptone, 150 gm Bacto yeast extract, […], Difco Laboratories, Detroit, Mich.) and supplemented with 50 μM Fe(II)SO4, 50 μM ZnSO4, 50 μM Na2S, 4 mM sodium thioglycolate, 100 μg/ml ampicillin, and 10 μg/ml tetracycline. The sealed flask was made anaerobic by gentle bubbling of nitrogen gas for 3 hours prior to cell inoculation. Anaerobicity was monitored by the presence of a small quantity of methylene blue (10 mg) which remains colorless in the absence of oxygen. After approximately 14 hours anaerobic culture at 37° C. when the cell density had reached 0.05 OD (optical density) at 600 nm, 0.2% (w/v) D-(+) glucose was added. […]
The supernatant was used to measure L-β-lysine formation according to the procedure of Ballinger et al. Biochemistry 31:10782 (1992). […] The mixture was spotted onto chromatography paper (Whatman #3001917, Whatman, LTD, Maidstone, England), the amino acids separated by electrophoresis and radioactivity measured according to the published procedure. […]

[2] = biological target: T1, Escherichia coli 2,3-aminomutase (P39280 protein); assay: Lysine 2,3-aminomutase activity of E. coli P39280 protein, HPLC of PITC derivatives; assay type: biochemical; conditions: L-lysine 44 mM, 37° C. for 60 min
Method: Lysine 2,3-aminomutase activity was measured with the Escherichia coli 2,3-aminomutase (P39280 protein) as described for alanine 2,3-aminomutase (see Example 5) with the following exceptions: P39280 protein, (25.4 μM-subunit); S-(5′-adenosyl)-L-methionine 90 μM; sodium hydrosulfite 2.3 mM; L-lysine 44 mM. The reaction was conducted at 37° C. for 60 min. The HPLC gradient established was 0-10% Buffer B in 35 min, 10-30% Buffer B in 35 min, 30-55% Buffer B in 35 min, and 55-100% Buffer B in 20 min. The PITC derivative of L-lysine eluted at a retention time of 101 min whereas the PITC derivative of β-lysine eluted at 95.6 min.

Molecule	enzyme activity [1]	2,3-aminomutase activity toward L-lysine [2]
purified recombinant produced lysine 2,3-aminomutase: Clostridial lysine 2,3-aminomutase expressed in E. coli and purified (protein, UniProt Q9XBQ8 1-416, looked up) L-lysine 2,3-aminomutase: MINRRYELFKDVSDADWNDWRWQVRNRIETVEELKKYIPLTKEEEEGVAQCVKSLRMAITPYYLSLIDPNDPNDPVRKQAIPTALELNKAAADLEDPLHEDTDSPVPGLTHRYPDRVLLLITDMCSMYCRHCTRRRFAGQSDDSMPMERIDKAIDYIRNTPQVRDVLLSGGDALLVSDETLEYIIAKLREIPHVEIVRIGSRTPVVLPQRITPELVNMLKKYHPVWLNTHFNHPNEITEESTRACQLLADAGVPLGNQSVLLRGVNDCVHVMKELVNKLVKIRVRPYYIYQCDLSLGLEHFRTPVSKGIEIIEGLRGHTSGYCVPTFVVDAPGGGGKTPVMPNYVISQSHDKVILRNFEGVITTYSEPINYTPGCNCDVCTGKKKVHKVGVAGLLNGEGMALEPVGLERNKRHVQE	34.5±1.6 μmoles lysine min^1 mg^−1 protein	–
P39280-protein: E. coli polypeptide, SEQ ID NO: 4, distant homologue of lysine 2,3-aminomutase from Cl. subterminale (protein, listed as Escherichia coli) MAHIVTLNTPSREDWLTQLADVVTDPDELLRLLNIDAEEKLLAGRSAKKLFALRVPRSFIDRMEKGNPDDPLLRQVLTSQDEFVIAPGFSTDPLEEQHSVVPGLLHKYHNRALLLVKGGCAVNCRYCFRRHFPYAENQGNKRNWQTALEYVAAHPELDEMIFSGGDPLMAKDHELDWLLTQLEAIPHIKRLRIHSRLPIVIPARITEALVECFARSTLQILLVNHINHANEVDETFRQAMAKLRRVGVTLLNQSVLLRDVNDNAQTLANLSNALFDAGVMPYYLHVLDKVQGAAHFMVSDDEARQIMRELLTLVSGYLVPKLAREIGGEPSKTPLDLQLRQQ	–	does display 2,3-aminomutase activity
